Test results published in the supplement of paper PMC6755084.

system: F1*sub RNA substrate (template-directed ligation); assay: fraction ligated after 30 min (ligated reads / total reads); higher = more ligase activity; sequences stand for … in GAGACCGCAACTGAAAAGTTGT…AGTTCTGCACGTAGAAGCAAAAGGC; conditions: 42 °C
Outline: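 Templates from an oligo pool were PCR-amplified, transcribed with T7 and gel-purified to give the ribozyme variants. Ligated and unligated products were separated on gel, reverse transcribed using barcoded primers, and read on a MiSeq. A quality filter of ≥20 was applied to core bases. Fraction ligated was taken as ligated reads as a share of all reads per variant.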

Sequence	fraction ligated
TATCACTGTGTAAACACTTTGGATGGGTTGA [3d1346]	0.845
TATCACTTGTCGTAAGACTTGGATGGGTTGA [3d2107]	0.771
TAACTTGTCGTAAGAACTTTGGATGGGTTGA [3d518]	0.21
TATCACTTGCTAAGACACTTTGGATGGGTTA [3d1611]	0.773
TATCACTTGTCGTAGCACTTGGATGGGTTGA [3d2006]	0.741
ATCACTGTGTAAGACACTTTGGATGGGTTGA [3d108]	0.823
TATACTGTCGTAAGACACTTTGGATGGTTGA [3d793]	0.132
TACACTTGTCGTAAGACCTTTGGATGGGTTGA [2d60]	0.625
TATCACTTGTCGTAAGAACTGGATGGGTTGA [3d2159]	0.802
TATCACTTGTCGTAAGACACTTTGTGGTTGA [3d2261]	0.0088
TATCACTGTCTAAGAACTTTGGATGGGTTGA [3d1362]	0.849
TATCATTGTCGTAAGACACTTGGTGGGTTGA [3d1271]	0.482
TACACTTGTCGTAAGACACTTTGGATGGGTTGA [1d3]	0.748
TATCACTTGTCGTGACACTTTGGATGGGTTGA [2d221]	0.808
TTCACTTGTCGTAAGACACTTTGATGGTTGA [3d494]	0.0545
TATCACTTGTCGTGACACTTTGGATGGGTTA [3d1991]	0.703
TATCACTTGTCTAAACCTTTGGATGGGTTGA [3d1837]	0.789
TATCACTTGTCGAAGAACTTTGGATGGGTTG [3d1942]	0.798
TATCCTTGTCGTAGACACTTTGGATGGGTTG [3d1054]	0.786
TATCACTTGTCGTAAGACACTTTGGTGGTTGA [2d290]	0.0232
TATCACTTGTGTAAACATTTGGATGGGTTGA [3d1746]	0.833

Sequence	fraction ligated
TATCACTTTCGTAGACACTTTGGATGGGTTGA [2d150]	0.802
TATCACTTGTCGTAAAACTTTGGAGGGTTGA [3d2063]	0.0898
TAATTGTCGTAAGACACTTTGGATGGGTTGA [3d508]	0.0528
TATCACTTTCGAAGACACTTTGGATGGGTTGA [2d149]	0.797
ATCACTTGTCGAGACACTTTGGATGGGTTGA [3d185]	0.757
TATCACTTGTCGTAGACTTTGGATGGGTTGA [3d2003]	0.814
TATCACTTTCGTAAGACACTTTGGAGGGTTA [3d1579]	0.04
TATCACTTTCGAAACACTTTGGATGGGTTGA [3d1494]	0.795
TATCATTGTCGAAGACACTTGGATGGGTTGA [3d1207]	0.771
TATCACTTTGTAAGACCTTTGGATGGGTTGA [3d1470]	0.769
TATCCTTGTGTAAGACACTTTGGTGGGTTGA [3d1010]	0.062
TATCACTTGTCTAAGACACTTTGGATGGTTG [3d1899]	0.408
TATCACTGTCGTAAACATTTGGATGGGTTGA [3d1400]	0.822
TACACTTTCGTAAGACATTTGGATGGGTTGA [3d593]	0.292
TATCACTTTCGTAAGCACTTTGATGGGTTGA [3d1533]	0.784
TATCACTGTCAAGACACTTTGGATGGGTTGA [3d1358]	0.817
ATCACTTGTCGTAAGACACTTGGATGGGTTA [3d258]	0.214
TATCATTGTGTAAGACACTTTGGATGGGTTA [3d1185]	0.677
TATCACTTTCGTAAGACATTGGATGGGTTGA [3d1554]	0.791
TATCACTTGTGTAAGACACTTTGGATGGGTTGA [1d10]	0.859
TATCACTTGTCGAAGACACTTTGGTGGGTTA [3d1972]	0.103

Sequence	fraction ligated
TATACTTGTCGTAAGACACTTTGGTGGGTTGA [2d85]	0.0569
TATCACTGTCGTAAGACACTTTGGATGGTTA [3d1460]	0.272
TATACTTGTCGTAGACACTTTGGATGGTTGA [3d880]	0.0359
TACACTTGTCGAGACACTTTGGATGGGTTGA [3d646]	0.195
TATCACTTGTCGAGAACTTTGGATGGGTTGA [3d1905]	0.819
ATCACTTGTCGTAAACCTTTGGATGGGTTGA [3d212]	0.758
TATCACTGTCGAAGACACTTTGGATGGTTGA [3d1382]	0.336
TATACTTGTGTAAGACACTTTGGAGGGTTGA [3d839]	0.0723
TATCACTTGTCGTAAACATTTGGTGGGTTGA [3d2076]	0.0521
TATCCTTTCGTAAGACACTTTGGATGGGTTA [3d982]	0.371
TATCACTGTCGTAGACACTTGGATGGGTTGA [3d1391]	0.799
TATCACTTGTCGTAGAACTTTGGTGGGTTGA [3d2016]	0.138
TATACTTGGTAAGACACTTTGGATGGGTTGA [3d812]	0.653
TATCACTTGCGTAGACCTTTGGATGGGTTGA [3d1630]	0.817
TATCACTTTCGAGACACTTTGGATGGGTTGA [3d1493]	0.79
TACACTTGTCGTAAACCTTTGGATGGGTTGA [3d673]	0.0569
TACACTTGTCGTAAGCACTTTGGATGGTTGA [3d689]	0.101
TATCACTGTGAAGACACTTTGGATGGGTTGA [3d1344]	0.863
ATCACTTGTCTAAACACTTTGGATGGGTTGA [3d173]	0.77
TATCACTTGTCGTAGACACTTTGGATGGGTTG [2d233]	0.843
TATCACTTGTCGTGACATTTGGATGGGTTGA [3d1985]	0.809

Sequence	fraction ligated
TACACTTGTCGTAAGACACTTTGGATGGGTTA [2d67]	0.274
ATCACTTGTCGTAGACACTTGGATGGGTTGA [3d204]	0.74
TATCACTGTCGTAAGACACTTTGATGGGTTG [3d1452]	0.754
TATCACTGTCGTAAGACACTTTGGTGGTTGA [3d1454]	0.0276
TATCACTTGTCGTAAGACACTTGATGGGTTG [3d2243]	0.239
ATCACTTGTCGTAAGAACTTTGGATGGGTTG [3d238]	0.794
TATCACTGTCGAAGACACTTTGGATGGGTTG [3d1384]	0.829
ATCACTTGTGTAAGAACTTTGGATGGGTTGA [3d161]	0.88
TATCACTGCGTAAGACACTTTGGATGGGTTG [3d1342]	0.834
TATCACTTGTCGTAAGAACTTTGATGGGTTA [3d2170]	0.09
TATCACTTGCGAAGACACTTTGGAGGGTTGA [3d1622]	0.105
TACATTGTCGTAAGACACTTTGGATGGTTGA [3d563]	0.303
TACACTTGTGTAAACACTTTGGATGGGTTGA [3d620]	0.0848
TATCACTTGCTAAGCACTTTGGATGGGTTGA [3d1602]	0.834
TATCACTTGTCGAAGACACTTTGAGGGTTGA [3d1966]	0.0437
TATACTTGTCGTAAGACACTTTGGATGGGTTGA [1d4]	0.791
TATCACTTGTCGAAGAACTTTGGATGGGTTA [3d1941]	0.779
TATCATTGTCGTAAGCACTTTGGATGGGTTA [3d1245]	0.474
TATATTTCGTAAGACACTTTGGATGGGTTGA [3d759]	0.245
TATCACTTGTCGTAAGACACTTTGGTGGGTTA [2d291]	0.018
